Experimental data published in the supplement of paper PMC7877785.
± gives the uncertainty stated by the source.

Assay: self-splicing fitness, log relative to wild type (ln ratio); higher = more splicing; Tetrahymena group I intron in knt gene, E. coli kanamycin selection, DiMSum; sequences stand for … in CUCUCU…GGAGGGAAAAGUUAUCAGGCAUGCACCUGGUAGCUAGUCUUUAAACCAAUAGAUUGCAUCGGUUUAAAAGGCAAGACCGUCAAAUUGCGGGAAAGGGGUCAACAGCCGUUCAGUACCAAGUCUCAGGGGAAACUUUGAGAUGGCCUUGCAAAGGGUAUGGUAAUAAGCUGACGGACAUGGUCCUAACCACGCAGCCAAGUCCUAAGUCAACAGAUCUUCUGUUGAUAUGGAUGCAGUUCACAGACUAAAUGUCGGUCGGGGAAGAUGUAUUCUUCUCAUAAGAUAUAGUCGGACCUCUCCUUAAUGGGAGCUAGCGGAUGAAGUGAUGCAACACUGGAGCCGCUGGGAACUAAUUUGUAUGCGAAAGUAUAUUGAUUAGUUUUGGAGUACUCGUGGUCG
Outline: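 DiMSum derived fitness as the error-weighted combination of fold changes across replicates, kanamycin versus no kanamycin, normalised to wild type. E. coli BL21(DE3) held the library, which randomised all eight P1ex-region intron nucleotides within the knt kanamycin-resistance gene on pET-22b(+). Six replicate transformations grew overnight at 37°C or 30°C on LB agar with or without 25 μg/mL kanamycin, also containing 100 μg/mL carbenicillin, 50 μM IPTG and 0.2% rhamnose, and pooled colonies were amplicon-sequenced on an Illumina HiSeq 2500.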

| Sequence | self-splicing fitness (ln) (30 °C) | self-splicing fitness (ln) (37 °C) |
| --- | --- | --- |
| ACAAAGCAAUAUUACGCAUG | -1.82 ± 0.075 | -0.868 ± 0.084 |
| ACAAAGCAAUAUUACGCCGU | -2.44 ± 0.16 | -1.41 ± 0.21 |
| ACAAAGCAAUAUUACGCCUC | -2.8 ± 0.28 | -2.2 ± 0.3 |
| ACAAAGCAAUAUUACGCGAU | -2.75 ± 0.14 | -2.22 ± 0.16 |
| ACAAAGCAAUAUUACGCGCU | -0.245 ± 0.053 | 0.00495 ± 0.066 |
| ACAAAGCAAUAUUACGCUCA | -0.782 ± 0.088 | 0.156 ± 0.11 |
| ACAAAGCAAUAUUACGCUGG | -1.3 ± 0.095 | -0.426 ± 0.12 |
| ACAAAGCAAUAUUACGGAAU | -3.21 ± 0.19 | -1.82 ± 0.19 |
| ACAAAGCAAUAUUACGGAUC | -2.77 ± 0.12 | -0.403 ± 0.11 |
| ACAAAGCAAUAUUACGGCGC | -0.996 ± 0.076 | 0.358 ± 0.12 |
| ACAAAGCAAUAUUACGGCUC | -0.452 ± 0.078 | -0.217 ± 0.12 |
| ACAAAGCAAUAUUACGGGCA | -1.56 ± 0.069 | -1.28 ± 0.056 |
| ACAAAGCAAUAUUACGGUCC | -1.7 ± 0.11 | -0.977 ± 0.16 |
| ACAAAGCAAUAUUACGGUUC | -3.12 ± 0.13 | -1.93 ± 0.17 |
| ACAAAGCAAUAUUACGUAGU | -2.57 ± 0.085 | -1.43 ± 0.095 |
| ACAAAGCAAUAUUACGUCCC | -0.873 ± 0.23 | -1.78 ± 0.25 |
| ACAAAGCAAUAUUACGUUUA | -3.55 ± 0.13 | -0.482 ± 0.088 |
| ACACAGCAAUAUUACGAAGA | -2.48 ± 0.1 | -1.99 ± 0.12 |
| ACACAGCAAUAUUACGACAG | -1.62 ± 0.054 | -0.914 ± 0.077 |
| ACACAGCAAUAUUACGAUAA | -2.46 ± 0.098 | -1.97 ± 0.11 |
| ACACAGCAAUAUUACGCACG | -0.797 ± 0.093 | -0.607 ± 0.12 |
| ACACAGCAAUAUUACGCGAG | -1.74 ± 0.053 | -0.504 ± 0.061 |
| ACACAGCAAUAUUACGCGGA | -1.98 ± 0.072 | -1.1 ± 0.07 |
| ACACAGCAAUAUUACGGAGC | -2.36 ± 0.13 | -1.52 ± 0.12 |

| Sequence | self-splicing fitness (ln) (30 °C) | self-splicing fitness (ln) (37 °C) |
| --- | --- | --- |
| ACACAGCAAUAUUACGGAGG | -2.69 ± 0.076 | -2.15 ± 0.098 |
| ACACAGCAAUAUUACGGGCU | -2.08 ± 0.093 | -1.11 ± 0.13 |
| ACACAGCAAUAUUACGGUUU | -1.05 ± 0.04 | -0.00178 ± 0.06 |
| ACACAGCAAUAUUACGUAAC | -3.39 ± 0.12 | -1.81 ± 0.14 |
| ACACAGCAAUAUUACGUAAU | -2.76 ± 0.085 | -1.73 ± 0.12 |
| ACACAGCAAUAUUACGUAGA | -3.64 ± 0.16 | -1.38 ± 0.11 |
| ACACAGCAAUAUUACGUAUU | -3.09 ± 0.089 | -2.29 ± 0.13 |
| ACACAGCAAUAUUACGUGAA | -1.84 ± 0.055 | -1.11 ± 0.079 |
| ACACAGCAAUAUUACGUGUG | -3.55 ± 0.1 | -1.44 ± 0.065 |
| ACACAGCAAUAUUACGUUAA | -2.79 ± 0.13 | -2.12 ± 0.12 |
| ACAGAGCAAUAUUACGAAAA |  | -3.05 ± 0.4 |
| ACAGAGCAAUAUUACGACUG | -1.05 ± 0.11 | -1.54 ± 0.15 |
| ACAGAGCAAUAUUACGAGGU | -3.36 ± 0.11 | -2.66 ± 0.15 |
| ACAGAGCAAUAUUACGAUGU | -3.39 ± 0.16 | -2.38 ± 0.18 |
| ACAGAGCAAUAUUACGCCCG | -3.2 ± 0.21 | -1.63 ± 0.18 |
| ACAGAGCAAUAUUACGCUAU | -3.38 ± 0.27 | -1.12 ± 0.19 |
| ACAGAGCAAUAUUACGCUUU | -2.28 ± 0.26 | -2.45 ± 0.23 |
| ACAGAGCAAUAUUACGGCAA | -0.636 ± 0.22 | -2.08 ± 0.33 |
| ACAGAGCAAUAUUACGGCCU | -3.08 ± 0.29 | -2.6 ± 0.25 |
| ACAGAGCAAUAUUACGGCGU | -1.24 ± 0.12 | -0.0954 ± 0.11 |
| ACAGAGCAAUAUUACGGGGC | -3.53 ± 0.17 | -2.73 ± 0.22 |
| ACAGAGCAAUAUUACGGGGU | -4.03 ± 0.34 | -2.39 ± 0.3 |
| ACAGAGCAAUAUUACGGGUC | -2.99 ± 0.18 | -2.89 ± 0.27 |
| ACAGAGCAAUAUUACGGUCC | -2.18 ± 0.14 | -2.05 ± 0.39 |

| Sequence | self-splicing fitness (ln) (30 °C) | self-splicing fitness (ln) (37 °C) |
| --- | --- | --- |
| ACAGAGCAAUAUUACGUAAC | -2.71 ± 0.11 | -3.27 ± 0.26 |
| ACAGAGCAAUAUUACGUAGC | -3.27 ± 0.33 | -2.56 ± 0.41 |
| ACAGAGCAAUAUUACGUAUA | -3.37 ± 0.26 | -2.72 ± 0.31 |
| ACAGAGCAAUAUUACGUGAG | -2.08 ± 0.11 | -1.55 ± 0.1 |
| ACAGAGCAAUAUUACGUGCG | -2.89 ± 0.29 | -1.75 ± 0.28 |
| ACAUAGCAAUAUUACGAAGG | -3.69 ± 0.28 | -1.33 ± 0.18 |
| ACAUAGCAAUAUUACGACCU | -0.446 ± 0.1 | 0.527 ± 0.13 |
| ACAUAGCAAUAUUACGACUG | -0.814 ± 0.065 | -0.36 ± 0.09 |
| ACAUAGCAAUAUUACGAGUU | -3.28 ± 0.18 | -2.28 ± 0.2 |
| ACAUAGCAAUAUUACGAUAU | -2.69 ± 0.15 | -1.97 ± 0.14 |
| ACAUAGCAAUAUUACGCCUA | -1.7 ± 0.24 | -0.307 ± 0.2 |
| ACAUAGCAAUAUUACGCCUG | -0.96 ± 0.16 | -0.622 ± 0.15 |
| ACAUAGCAAUAUUACGCGAU | -3.37 ± 0.21 | -2.35 ± 0.25 |
| ACAUAGCAAUAUUACGCGCG | -0.8 ± 0.12 | -0.126 ± 0.16 |
| ACAUAGCAAUAUUACGCGUC | -3.71 ± 0.18 | -3.26 ± 0.28 |
| ACAUAGCAAUAUUACGCGUG | -2.8 ± 0.1 | -1.28 ± 0.12 |
| ACAUAGCAAUAUUACGCUAG | -2 ± 0.11 | -0.855 ± 0.13 |
| ACAUAGCAAUAUUACGCUCG | -0.317 ± 0.091 | 0.247 ± 0.12 |
| ACAUAGCAAUAUUACGGGAA | -2.36 ± 0.11 | -1.7 ± 0.13 |
| ACAUAGCAAUAUUACGGGAC | -3.23 ± 0.14 | -1.37 ± 0.12 |
| ACAUAGCAAUAUUACGGGGA | -2.65 ± 0.29 | -1.92 ± 0.19 |
| ACAUAGCAAUAUUACGUCGA | -1.95 ± 0.18 | -1.64 ± 0.15 |
| ACAUAGCAAUAUUACGUGCA | -0.639 ± 0.053 | 0.349 ± 0.063 |
| ACAUAGCAAUAUUACGUGGC | -3.8 ± 0.23 | -3.09 ± 0.27 |

| Sequence | self-splicing fitness (ln) (30 °C) | self-splicing fitness (ln) (37 °C) |
| --- | --- | --- |
| ACAUAGCAAUAUUACGUGGU | -3.44 ± 0.16 | -3.3 ± 0.24 |
| ACCAAGCAAUAUUACGAACG | -1.61 ± 0.076 | -0.581 ± 0.087 |
| ACCAAGCAAUAUUACGAAGU | -3.09 ± 0.14 | -1.31 ± 0.14 |
| ACCAAGCAAUAUUACGAAUA | -2.69 ± 0.2 | -2.1 ± 0.16 |
| ACCAAGCAAUAUUACGACCA | -1.03 ± 0.081 | -1.02 ± 0.1 |
| ACCAAGCAAUAUUACGACGU | -0.00288 ± 0.056 | 0.552 ± 0.063 |
| ACCAAGCAAUAUUACGAGAG | -3.53 ± 0.2 | -2.3 ± 0.17 |
| ACCAAGCAAUAUUACGAUAA | -3.07 ± 0.18 | -1.46 ± 0.16 |
| ACCAAGCAAUAUUACGAUCA | -1.55 ± 0.086 | -1.22 ± 0.075 |
| ACCAAGCAAUAUUACGAUCU | -1.29 ± 0.064 | 0.0583 ± 0.076 |
| ACCAAGCAAUAUUACGAUUC | -1.48 ± 0.1 | -1.04 ± 0.14 |
| ACCAAGCAAUAUUACGCACG | -1.92 ± 0.1 | -0.625 ± 0.13 |
| ACCAAGCAAUAUUACGCCCG | -1.42 ± 0.14 | 0.129 ± 0.15 |
| ACCAAGCAAUAUUACGCUGA | -1.73 ± 0.1 | -1.13 ± 0.11 |
| ACCAAGCAAUAUUACGCUGC | -1.62 ± 0.063 | -0.906 ± 0.076 |
| ACCAAGCAAUAUUACGGAAU | -3.05 ± 0.11 | -1.15 ± 0.096 |
| ACCAAGCAAUAUUACGGACU | -0.029 ± 0.046 | 0.262 ± 0.062 |
| ACCAAGCAAUAUUACGGAUU | -2.62 ± 0.081 | -1.06 ± 0.081 |
| ACCAAGCAAUAUUACGGGAU | -2.53 ± 0.088 | -1.39 ± 0.083 |
| ACCAAGCAAUAUUACGGUGA | -1.68 ± 0.1 | -1.29 ± 0.083 |
| ACCAAGCAAUAUUACGUCUC | -2.73 ± 0.094 | -2.28 ± 0.12 |
| ACCAAGCAAUAUUACGUGGU | -3.41 ± 0.1 | -2.69 ± 0.13 |
| ACCAAGCAAUAUUACGUGUU | -3.99 ± 0.093 | -1.54 ± 0.075 |
